Experimental data reported in patent US20160272689A1.

Target: Fc-tagged extracellular domain of mouse RPTPσ (wild type) (mouse) (UniProt B0V2N1)
Assay: ELISA: Fc-tagged RPTPσ (2 µg/ml) on protein G plates; biotinylated aggrecan 5 µg/ml preincubated with protamine 0-5 µg/ml; streptavidin-HRP, A450

Chain of Fc-tagged extracellular domain of mouse RPTPσ (wild type) (mouse) (B0V2N1 30-1257): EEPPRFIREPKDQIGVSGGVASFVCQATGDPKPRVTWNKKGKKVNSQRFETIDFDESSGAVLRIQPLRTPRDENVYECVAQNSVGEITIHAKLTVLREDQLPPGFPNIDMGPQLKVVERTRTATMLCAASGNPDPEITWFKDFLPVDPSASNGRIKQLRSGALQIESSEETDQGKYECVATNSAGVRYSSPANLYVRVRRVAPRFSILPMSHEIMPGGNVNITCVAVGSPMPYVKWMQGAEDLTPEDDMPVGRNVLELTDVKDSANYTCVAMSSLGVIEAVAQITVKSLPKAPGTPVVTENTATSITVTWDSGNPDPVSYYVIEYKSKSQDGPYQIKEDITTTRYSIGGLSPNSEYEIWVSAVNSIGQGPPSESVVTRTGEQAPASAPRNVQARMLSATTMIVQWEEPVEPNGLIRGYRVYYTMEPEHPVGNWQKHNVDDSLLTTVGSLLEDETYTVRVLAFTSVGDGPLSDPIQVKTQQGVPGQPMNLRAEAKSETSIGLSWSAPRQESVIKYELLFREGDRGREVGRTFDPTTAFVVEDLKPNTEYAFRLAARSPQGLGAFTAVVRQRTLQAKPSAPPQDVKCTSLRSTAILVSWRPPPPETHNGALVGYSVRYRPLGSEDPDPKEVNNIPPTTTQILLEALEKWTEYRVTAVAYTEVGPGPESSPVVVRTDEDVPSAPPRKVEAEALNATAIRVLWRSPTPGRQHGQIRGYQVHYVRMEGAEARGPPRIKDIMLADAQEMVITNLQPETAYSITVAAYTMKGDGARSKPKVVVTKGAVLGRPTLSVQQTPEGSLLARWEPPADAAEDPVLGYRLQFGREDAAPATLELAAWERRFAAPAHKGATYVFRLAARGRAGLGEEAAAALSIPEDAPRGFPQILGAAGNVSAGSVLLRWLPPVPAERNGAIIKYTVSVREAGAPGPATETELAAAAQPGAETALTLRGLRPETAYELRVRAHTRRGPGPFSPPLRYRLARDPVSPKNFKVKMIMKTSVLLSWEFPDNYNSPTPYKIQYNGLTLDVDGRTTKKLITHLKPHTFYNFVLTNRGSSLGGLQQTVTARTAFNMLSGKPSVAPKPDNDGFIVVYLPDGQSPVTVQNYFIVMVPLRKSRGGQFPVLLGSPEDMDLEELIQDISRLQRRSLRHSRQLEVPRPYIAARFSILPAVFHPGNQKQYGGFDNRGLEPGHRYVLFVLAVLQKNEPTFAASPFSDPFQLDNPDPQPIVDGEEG
Chain of biotinylated bovine aggrecan, P13608 17-2364 (ligand; biotinylated (sites not stated); natural chondroitin sulphate side chains of the proteoglycan) (P13608 17-2364 limits assumed): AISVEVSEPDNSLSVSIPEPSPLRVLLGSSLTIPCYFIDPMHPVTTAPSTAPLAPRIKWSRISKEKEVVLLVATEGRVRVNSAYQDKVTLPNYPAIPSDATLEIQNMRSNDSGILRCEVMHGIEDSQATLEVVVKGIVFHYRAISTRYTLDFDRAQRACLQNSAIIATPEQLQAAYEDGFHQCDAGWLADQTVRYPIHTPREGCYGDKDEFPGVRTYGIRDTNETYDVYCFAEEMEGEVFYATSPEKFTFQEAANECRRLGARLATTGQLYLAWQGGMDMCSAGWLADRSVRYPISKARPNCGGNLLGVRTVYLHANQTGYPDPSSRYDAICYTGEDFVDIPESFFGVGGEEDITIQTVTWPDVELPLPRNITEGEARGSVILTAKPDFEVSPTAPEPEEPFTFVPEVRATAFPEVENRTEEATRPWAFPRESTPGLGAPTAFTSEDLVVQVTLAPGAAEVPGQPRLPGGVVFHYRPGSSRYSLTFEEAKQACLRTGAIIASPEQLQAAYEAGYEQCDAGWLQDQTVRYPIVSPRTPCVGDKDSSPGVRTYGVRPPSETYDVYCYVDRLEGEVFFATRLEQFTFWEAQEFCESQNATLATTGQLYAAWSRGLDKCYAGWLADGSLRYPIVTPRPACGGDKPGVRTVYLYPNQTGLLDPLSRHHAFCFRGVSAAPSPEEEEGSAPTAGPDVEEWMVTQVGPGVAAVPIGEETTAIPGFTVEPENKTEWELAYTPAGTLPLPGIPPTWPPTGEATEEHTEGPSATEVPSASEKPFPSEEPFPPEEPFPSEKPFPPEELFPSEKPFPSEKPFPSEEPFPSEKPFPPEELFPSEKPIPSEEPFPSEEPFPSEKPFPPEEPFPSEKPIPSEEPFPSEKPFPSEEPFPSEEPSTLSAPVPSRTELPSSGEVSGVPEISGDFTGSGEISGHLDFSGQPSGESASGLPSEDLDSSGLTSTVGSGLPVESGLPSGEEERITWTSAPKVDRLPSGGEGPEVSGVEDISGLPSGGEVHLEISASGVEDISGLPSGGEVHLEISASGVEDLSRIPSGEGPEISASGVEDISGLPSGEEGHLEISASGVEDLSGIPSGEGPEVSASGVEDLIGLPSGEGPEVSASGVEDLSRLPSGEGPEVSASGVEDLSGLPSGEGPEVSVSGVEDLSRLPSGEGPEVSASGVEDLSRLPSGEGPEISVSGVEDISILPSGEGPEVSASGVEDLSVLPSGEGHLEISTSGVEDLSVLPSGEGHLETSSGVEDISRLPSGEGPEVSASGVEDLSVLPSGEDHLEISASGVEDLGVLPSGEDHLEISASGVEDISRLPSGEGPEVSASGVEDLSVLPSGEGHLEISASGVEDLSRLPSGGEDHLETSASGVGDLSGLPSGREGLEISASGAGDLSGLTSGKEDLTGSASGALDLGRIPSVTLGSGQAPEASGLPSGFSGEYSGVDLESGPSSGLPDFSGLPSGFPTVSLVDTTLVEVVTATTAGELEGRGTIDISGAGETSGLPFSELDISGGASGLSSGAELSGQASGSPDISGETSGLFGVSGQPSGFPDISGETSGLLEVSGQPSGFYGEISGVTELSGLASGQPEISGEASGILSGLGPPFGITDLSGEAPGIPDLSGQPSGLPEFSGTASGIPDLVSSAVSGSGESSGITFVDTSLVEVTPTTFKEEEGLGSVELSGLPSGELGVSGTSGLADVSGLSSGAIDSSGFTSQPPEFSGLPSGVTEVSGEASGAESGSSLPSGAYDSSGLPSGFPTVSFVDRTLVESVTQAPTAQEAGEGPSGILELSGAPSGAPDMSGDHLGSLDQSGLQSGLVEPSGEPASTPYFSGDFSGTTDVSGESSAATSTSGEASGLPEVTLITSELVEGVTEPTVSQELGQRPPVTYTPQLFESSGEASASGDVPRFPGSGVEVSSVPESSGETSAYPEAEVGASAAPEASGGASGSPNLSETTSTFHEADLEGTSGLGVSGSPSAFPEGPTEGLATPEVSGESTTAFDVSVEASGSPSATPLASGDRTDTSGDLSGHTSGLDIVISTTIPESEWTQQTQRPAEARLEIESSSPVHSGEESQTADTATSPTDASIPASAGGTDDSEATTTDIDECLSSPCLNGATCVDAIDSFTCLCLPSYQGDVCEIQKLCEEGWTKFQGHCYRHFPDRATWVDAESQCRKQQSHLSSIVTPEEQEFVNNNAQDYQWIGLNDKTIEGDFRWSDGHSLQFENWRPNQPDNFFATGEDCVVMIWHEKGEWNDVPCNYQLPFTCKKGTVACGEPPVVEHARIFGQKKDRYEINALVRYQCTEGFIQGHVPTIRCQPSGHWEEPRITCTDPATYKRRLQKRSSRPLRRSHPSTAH

fold increase of binding in the presence of protamine: 2 fold
Substance: biotinylated bovine aggrecan, P13608 17-2364 (ligand; biotinylated (sites not stated); natural chondroitin sulphate side chains of the proteoglycan)
